In the supplement of paper PMC9170038:

Test system: K4 kissing-loop RNA reporter
Test: apparent KD of K4 kissing-loop reporter; higher = weaker reporter binding
Conditions: Eterna round: R107
Method: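 RNA-MaP round R107: designed RNA switches with theophylline, tryptophan, arginine or FMN aptamers are transcribed on-chip within common flanks. They are titrated with a labelled K4 kissing-loop RNA reporter in RNA-MaP buffer (100 mM Tris pH 7.5, 80 mM KCl, 4 mM MgCl2), without ligand or with the indicated ligand. Median apparent KD per design.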

[1] = input ligand: theophylline 20 uM
[2] = input ligand: tryptophan 2.4 mM
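Note: bound reporter read as fluorescence of individual clusters on recovered sequencing chips by microscopy, with normalized cluster intensities fitted with a binding model.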

| Sequence | apparent KD of K4 kissing-loop reporter (input ligand: FMN 200 uM) | apparent KD of K4 kissing-loop reporter (input ligand: arginine 13.2 mM) | apparent KD of K4 kissing-loop reporter (input ligand: none) | apparent KD of K4 kissing-loop reporter [1] | apparent KD of K4 kissing-loop reporter [2] |
| --- | --- | --- | --- | --- | --- |
| UUUGGAUUGCACUAAGAGCGCAAGCGCCAACGAGGACCGGUACGGCCGCCACUCGCGGAGGAGUCCAGUGAUGUUGGACGGCCCG [Onenusan] | 233 nM | 359 nM | 359 nM | 180 nM | 172 nM |
| AAAAUAAAUAGCAGUCACGGAGUGAUGUUCCGAGGACCGGUACGGCCGCCACUCGACCAGACAAAGUCUGGAUGGCGAGACUGCA [#SwitchBubble 19 #K4Early] | 200 nM | 290 nM | 342 nM | 392 nM | 340 nM |
| UGUGAUGUGUAGAGUGAUGUUUUGAAGGAUACCAGAGUGUUGUUAUUCCCUUGGCAGCUUGAGUGAUGUUUGAUGUUGUUGUUGU [efvrmullin] | 228 nM | 120 nM | 194 nM | 133 nM | 152 nM |
| AGUACAACUGCGGCCGCCACUCAACGCAGAUCAAAGAUCUGCAUUCACUCAGUGAUGUUGAGUGAGAGGACCGGGCAGUUGUACA [Omei KL Tryp B SS B v3] | 855 nM | 718 nM | 742 nM | 645 nM | 166 nM |
| GCAGUGAUGUUGCUGGUGUGCAGUGGUAGUCGAGGACCGGUACGGCCGCCACUCGGUGAGAACCUGCUAAUACAUCGAUAAGUGA [XVIII] | 550 nM | 369 nM | 738 nM | 463 nM | 558 nM |
| UAAUCCUAGUGAUAAUAAUCAAGUGGUGGGCGAGGACCGGUACGGCCGCCACUCGAAUAUGCAGUGAUGUUGUAAUCCGGAUAAU [Exclusion - Tryptophan A (Freestyle 6)] | 667 nM | 926 nM | 919 nM | 894 nM | 594 nM |
| GGGAUGUAGGGAAGGAGCGCUUUGCGAAUAUUAAUGAGUGAUGUUCGUAGAUAUUUGUAAUGGCAGGUAGGUCGCCCUAUAUCCC [Skye_SS_AB] | 197 nM | 131 nM | 166 nM | 151 nM | 157 nM |
| UGCAUCAGUGCCUUUGAUCUAUUCCUGGAUACCAGAUCCUACUUGAUCCCUUGGCAGCCAUACGGGAGUGAUGUUCCAUGUAUCC [theeternabot_exclusion_KL_Theo_A_43] | 210 nM | 199 nM | 209 nM | 285 nM | 167 nM |
| UGGAGUUGACGAAAAGUCAACUCCUGAGAAGGAGCGGACGAAAGUCCAGGUAGGUCGCUCACUACCAGUGAUGUUGGUACUGAAA | 187 nM | 228 nM | 203 nM | 229 nM | 164 nM |
| AUUUUGGUUUAGAGUGAUGUUCCUUGUAUUCGAGGACCGGUACGGCCGCCACUCGGGUAGAAAAGAAAAGAAAUGUUUGAUUUUU [BDazzled - #9 SS Tryptophan A] | 282 nM | 102 nM | 210 nM | 222 nM | 290 nM |
| GCCGUAGAUGGAAGGAGCGUGAUAAGUGAAUUAUCCAGUGAUGUUGGAUCUUAGAUAGGAUCACAGGUAGGUCGCCAUCUACGGC | 244 nM | 181 nM | 217 nM | 297 nM | 192 nM |
| AAAGACUGACUGCAAUUAGCAGUCAGUCAACGAGGACCGGUACGGCCGCCACUCGGGUCCUAGAGUGAUGUUCUAAUAAUAUAAU [Default title] | 279 nM | 367 nM | 432 nM | 466 nM | 167 nM |
| UCCUGCAAUCCGCCACGAAAGUGGAUGGAUACCAGAGUCGAAAGACUCCCUUGGCAGCCAGUGAUGUUGGAAGCAGGUAAAUAAA | 819 nM | 645 nM | 715 nM | 656 nM | 596 nM |
| UAAUUUAUUUCUUUUAUAUAAUAAUCAGAUACCAGUGAUUAAUGUCACCCUUGGCAGCUGUAUAGAGUGAUGUUCUAAUGCUUAA [JR_SSTheophyA_Sub022] | 176 nM | 169 nM | 142 nM | 233 nM | 147 nM |
| AAUGAGGACACUUGCAACAGUCCUCGAAUACGAGGACCGGUACGGCCGCCACUCGAUAACUUGCAGUGAUGUUGCAAGUAAGAAU [(T)''-(K)'-(T)'-(T1)-(T2)-(K1)-(K2)_Design2] | 227 nM | 201 nM | 207 nM | 258 nM | 311 nM |
